Here are results for 39 sequences from the supplement of paper PMC9732359.

This data set in a line: protein stability index of a GFP-peptide fusion (yeast GPS) (PSI 1-4); higher = more stable; sorted into four equal gates, so the index is relative within each strain. Put shortly:
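The protein stability index combines read frequencies across sorting gates, each weighted by its gate number and then summed. To obtain those frequencies, a pooled yeast library of GFP fusions to tiled 17-residue yeast protein peptides, on a plasmid also expressing Cherry, was grown to mid-log phase in leucine-free medium. The cells were sorted into four equal gates by GFP/Cherry ratio before plasmid amplification by PCR and Illumina sequencing.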

± gives the uncertainty stated by the source.

With ENEEFITFLQTLYIGNT [ECM29], the protein stability index turned out to be 2.06 ± 0.055 (doa10∆), 2.42 ± 0.036 (pdr5∆), 2.38 ± 0.11 (san1∆) and 2.22 ± 0.066 (ubr1∆).
ENIQEGTSLTIQHIAAA [CDC53] had a protein stability index (doa10∆) of 2.52 ± 0.091, a protein stability index (pdr5∆) of 3.11 ± 0.086, a protein stability index (san1∆) of 2.42 ± 0.099 and a protein stability index (ubr1∆) of 2.91 ± 0.077.
Taken in the same sequence, the figures for ENLADLDYQIGNSESKV [LIN1] were 3.23 ± 0.099, 3.42 ± 0.11, 3.06 ± 0.12 and 3.42 ± 0.1.
For the sequence ENLFSKEEVCQGMEGTV [YMR129W/POM152], the protein stability index stood at 2.5 ± 0.073 (doa10∆), 2.95 ± 0.073 (pdr5∆), 2.92 ± 0.054 (san1∆) and 2.65 ± 0.089 (ubr1∆).
Take ENNYKKRLLGTAFKSSP [RPS23A]: the protein stability index (doa10∆) is 2.32 ± 0.047, the protein stability index (pdr5∆) was determined as 2.6 ± 0.049, the protein stability index (san1∆) was 2.22 ± 0.062 and the protein stability index (ubr1∆) is 2.44 ± 0.036.
As to ENRKKDESDSENDIEIK [YLR335W/NUP2], the protein stability index by setting is: (doa10∆) 2.68 ± 0.1; (pdr5∆) 2.23 ± 0.15; (san1∆) 1.65 ± 0.12; (ubr1∆) 2.73 ± 0.082.
As to ENSFYKKEASKTKWDRK [POP1], the protein stability index reads like this: (doa10∆) 2.25 ± 0.063; (pdr5∆) 2.37 ± 0.063; (san1∆) 2.3 ± 0.068; (ubr1∆) 2.22 ± 0.048.
Taken in the same sequence, the figures for ENSGKEMDEKSYEKNED [LIN1] were 3.64 ± 0.28, 3.29 ± 0.12, 3.33 ± 0.14 and 3.16 ± 0.11.
Taken in the same sequence, the figures for ENSTSNSKPEKSSDSND [YLR335W/NUP2] were 3.24 ± 0.14, 3.32 ± 0.16, 3.31 ± 0.071 and 3.4 ± 0.085.
Turning to ENTVGLISGAGANPRVL [RPN10], the protein stability index came to 1.72 ± 0.052 (doa10∆), 1.46 ± 0.057 (pdr5∆), 1.86 ± 0.085 (san1∆) and 1.4 ± 0.044 (ubr1∆).
ENYDAKIELEKKEKWAR [YIL149C/MLP2] came in with a protein stability index (doa10∆) of 3.2 ± 0.08, a protein stability index (pdr5∆) of 3.2 ± 0.12, a protein stability index (san1∆) of 2.67 ± 0.12 and a protein stability index (ubr1∆) of 3.12 ± 0.067.
The sequence ENYSAMIFETIVDGKLK [FAS1] yielded a protein stability index (pdr5∆) of 3.24 ± 0.22, a protein stability index (san1∆) of 2.98 ± 0.13 and a protein stability index (ubr1∆) of 3.09 ± 0.16.
Regarding EPEEEKSKREEEAKSVL [ARP9], the protein stability index runs as follows: (doa10∆) 3.15 ± 0.27; (pdr5∆) 3.53 ± 0.29; (ubr1∆) 3.25 ± 0.17.
For the sequence EPGHAADQEQAKLIRSA [RPO21], the protein stability index came out at 3.2 ± 0.2 (doa10∆), 3.24 ± 0.2 (pdr5∆), 2.69 ± 0.19 (san1∆) and 3.12 ± 0.1 (ubr1∆).
For EPTVRIQAVFCLTKFQD [YCG1], in that order: 2.27 ± 0.05, 2.53 ± 0.046, 2.28 ± 0.063 and 2.78 ± 0.047.
For EPYARVSGDLNPIHVSR [FAS1], in that order: 2.64 ± 0.14, 2.92 ± 0.092, 2.76 ± 0.086 and 2.83 ± 0.1.
EPYHFISNYNTKYTDDM [SRB8] displayed a protein stability index (doa10∆) of 2.96 ± 0.11, a protein stability index (pdr5∆) of 2.98 ± 0.07, a protein stability index (san1∆) of 3.01 ± 0.057 and a protein stability index (ubr1∆) of 3.19 ± 0.1.
Taken in the same sequence, the figures for EQELAHILLTELLAYQF [FAS2] were 2.547 ± 0.023, 2.807 ± 0.025, 2.67 ± 0.023 and 2.633 ± 0.019.
Consider EQHNLVKKGPVRLPTKV [RPS20], for which the protein stability index by setting is: (doa10∆) 2.45 ± 0.097; (pdr5∆) 2.61 ± 0.16; (san1∆) 2.65 ± 0.063; (ubr1∆) 2.64 ± 0.075.
Regarding EQKGQMAKKEGTPKTDS [MED4], the protein stability index reads like this: (doa10∆) 3.22 ± 0.21; (pdr5∆) 3 ± 0.22; (san1∆) 3.13 ± 0.19.
With EQKITEIEDGQDGGVTP [RPO21], the protein stability index reads like this: (doa10∆) 3.36 ± 0.081; (pdr5∆) 3.38 ± 0.067; (san1∆) 3.37 ± 0.048; (ubr1∆) 3.31 ± 0.067.
Turning to EQQKEELTDKLSALNSE [SMC1], the protein stability index (pdr5∆) amounted to 3.19 ± 0.11, the protein stability index (san1∆) stood at 2.73 ± 0.15 and the protein stability index (ubr1∆) was found to be 3.14 ± 0.12.
Turning to EQQPEQPQETEEHHEEE [RPT4], the protein stability index runs as follows: (doa10∆) 3.41 ± 0.084; (pdr5∆) 3.28 ± 0.12; (san1∆) 3.2 ± 0.12; (ubr1∆) 3.44 ± 0.1.
For EQSVKTQNSRHYMVHEA [LIN1], the protein stability index runs as follows: (doa10∆) 2.62 ± 0.25; (pdr5∆) 2.82 ± 0.11; (san1∆) 2.49 ± 0.089.
On to EQTVSAVTEATSTNGDS [RGR1], for which the protein stability index runs as follows: (doa10∆) 3.45 ± 0.16; (pdr5∆) 3.29 ± 0.077; (san1∆) 3.28 ± 0.083; (ubr1∆) 3.43 ± 0.12.
For EQWITIESQMRDLILTE [PRP8], the protein stability index (doa10∆) was found to be 2.78 ± 0.088, the protein stability index (pdr5∆) worked out at 3.1 ± 0.092, the protein stability index (san1∆) is 3.08 ± 0.073 and the protein stability index (ubr1∆) worked out at 3.14 ± 0.077.
On to EREEAEKKRAEQENMRK [MED2], for which the protein stability index (san1∆) was 2.75 ± 0.28.
Regarding EREIKRRKFDPSSSENV [UBP6], the protein stability index was 3.51 ± 0.078 (doa10∆), 3.37 ± 0.071 (pdr5∆), 3.14 ± 0.065 (san1∆) and 3.33 ± 0.13 (ubr1∆).
In the case of ERHGYIRGIVKQIVHDS [RPL2A], the protein stability index is 1.6 ± 0.051 (doa10∆), 1.84 ± 0.072 (pdr5∆), 1.92 ± 0.062 (san1∆) and 1.79 ± 0.05 (ubr1∆).
Taken in the same sequence, the figures for ERKKSIGSQRGRRLSML [DSN1] were 3.18 ± 0.11, 2.53 ± 0.087, 3.13 ± 0.098 and 2.92 ± 0.093.
In the case of ERLKVPILVTLVSDSEI [POP6], the protein stability index is, setting by setting: (doa10∆) 1.55 ± 0.035; (pdr5∆) 1.86 ± 0.04; (san1∆) 1.58 ± 0.066; (ubr1∆) 1.66 ± 0.025.
Taken in the same sequence, the figures for ERLMTWKFKSLIEILRL [RRI2] were 2.11 ± 0.054, 2.01 ± 0.044, 1.68 ± 0.088 and 2.31 ± 0.032.
Taken in the same sequence, the figures for ERSDLLPYLSDTCAVSF [YJR042W/NUP85] were 2.31 ± 0.099, 2.46 ± 0.06, 2.59 ± 0.076 and 2.45 ± 0.041.
For ERSICALGEFADWDPES [YML031W/NDC1], in that order: 3.5 ± 0.14, 3.53 ± 0.092, 3.28 ± 0.088 and 3.27 ± 0.064.
On to ERYSDKYLKKRKIGISI [RPC31], for which the protein stability index stood at 1.61 ± 0.11 (doa10∆), 2.39 ± 0.23 (pdr5∆) and 2.44 ± 0.21 (ubr1∆).
With ERYYELAFDKLNVPVFQ [ARP7], the protein stability index by setting is: (doa10∆) 1.87 ± 0.064; (pdr5∆) 2.17 ± 0.073; (san1∆) 1.83 ± 0.1; (ubr1∆) 2.07 ± 0.07.
For the sequence ESAFENLMGNRNNHNSN [SNF12], the protein stability index (ubr1∆) was determined as 3.44 ± 0.21.
On to ESEKLVTPEDVMTISSL [RPC82], for which the protein stability index is, setting by setting: (doa10∆) 3.23 ± 0.083; (pdr5∆) 3.13 ± 0.078; (san1∆) 3.05 ± 0.059; (ubr1∆) 3.26 ± 0.072.
On to ESENFKIIALQPNEISF [RGR1], for which the protein stability index (doa10∆) is 2.39 ± 0.091, the protein stability index (pdr5∆) is 2.55 ± 0.11, the protein stability index (san1∆) is 2.54 ± 0.084 and the protein stability index (ubr1∆) turned out to be 2.49 ± 0.075.
